From article PMC8456102

Molecular target: native Tyr-p3 (group 3 allergen of Tyrophagus putrescentiae) (Tyrophagus putrescentiae) (UniProt C6ZDB5)
UniProt C6ZDB5, sequence (C6ZDB5 34-285): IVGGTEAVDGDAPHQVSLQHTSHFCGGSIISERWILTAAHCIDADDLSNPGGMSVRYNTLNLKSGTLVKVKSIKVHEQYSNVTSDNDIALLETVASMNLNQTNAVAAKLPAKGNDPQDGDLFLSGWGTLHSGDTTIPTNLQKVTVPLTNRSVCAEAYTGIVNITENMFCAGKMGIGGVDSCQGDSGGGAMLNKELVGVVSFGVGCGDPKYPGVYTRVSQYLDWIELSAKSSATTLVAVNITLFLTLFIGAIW

inhibition of the protease activity of nTyr-p3 on the substrate TAME (OD 405 nm; sample pretreated with 10 mM inhibitor for 60 min at 25°C): 88%
Substance: soybean trypsin inhibitor (from UniProt P01070 25-205) (natural protein)
